Key:
[1] = target: CP-MVP-Z recombinant vaults
[2] = target: CP-MVP-Z recombinant vaults; test: ELISA

other [1] [%] | EC50 [2] [pM] | Substance
92 | 250 | rabbit IgG (Sigma) (antibody)
52 | – | mouse IgG (Sigma) (antibody)

Reference: article PMC2641028
